The record followed here is article PMC9122595.

First the molecules themselves.
B1: CDC6 probe (dsDNA)
DNA 1: CGCTCCCCGGCCATCTTGGCGGCTGGT
DNA 2: ACCAGCCGCCAAGATGGCCGGGGAGCG
B2: S2 (dsDNA)
DNA 1: GGGCACAGACATTTTAATCA
DNA 2: TGATTAAAATGTCTGTGCCC
B3: S4M (dsDNA)
DNA 1: TGGTGCCGAGGGTTTTTTTC
DNA 2: GAAAAAAACCCTCGGCACCA
B4: S4 (dsDNA)
DNA 1: TGGTGCCGACATTTTTTTTC
DNA 2: GAAAAAAAATGTCGGCACCA
B5: S3 (dsDNA)
DNA 1: CTTGTCTGCCATTGTATCTT
DNA 2: AAGATACAATGGCAGACAAG
B6: S2M (dsDNA)
DNA 1: GGGCACAGAGGGTTTAATCA
DNA 2: TGATTAAACCCTCTGTGCCC
B7: S5 (dsDNA)
DNA 1: GCTTTCTTCCATCTTGAAAA
DNA 2: TTTTCAAGATGGAAGAAAGC
B8: S5M (dsDNA)
DNA 1: GCTTTCTTCGGGCTTGAAAA
DNA 2: TTTTCAAGCCCGAAGAAAGC
B9: S1 (dsDNA)
DNA 1: ATGATAAGCCATGATCACAC
DNA 2: GTGTGATCATGGCTTATCAT

T1 sequence (P25490 whole entry): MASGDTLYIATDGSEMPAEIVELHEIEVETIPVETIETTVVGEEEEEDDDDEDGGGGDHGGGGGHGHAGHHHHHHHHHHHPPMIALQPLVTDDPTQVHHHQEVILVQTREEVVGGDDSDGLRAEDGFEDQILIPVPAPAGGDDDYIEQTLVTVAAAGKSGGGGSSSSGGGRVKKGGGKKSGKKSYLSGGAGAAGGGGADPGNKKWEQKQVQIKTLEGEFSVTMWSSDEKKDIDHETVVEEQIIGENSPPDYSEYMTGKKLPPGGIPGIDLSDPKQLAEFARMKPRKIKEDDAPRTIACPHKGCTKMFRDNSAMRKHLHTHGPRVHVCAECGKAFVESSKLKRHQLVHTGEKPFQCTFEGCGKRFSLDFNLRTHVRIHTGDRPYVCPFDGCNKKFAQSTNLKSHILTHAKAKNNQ

One series addresses T1, His6-YY1 (UniProt P25490 1-414). As to the kind of experiment: EMSA. A general note: Mobility shift assays separate free from complexed probe on a gel.
Regarding B1, the binding result is given as “binds”. On to B2, for which the binding result was “binds”.

A further series addresses T1, His6-YY1. As to the kind of experiment: competition.
With B3, the binding result is recorded as “no binding”. The same measure, in the same setting: next, B4: “binds”. On the same count and under the same terms, next, B5: “no binding”; B6: “no binding”. With B7, the binding result is “binds”.

Turning to B8, the binding result is on record as “no binding”. Take B9: the binding result was “no binding”.
